# According to paper PMC9166766:
# Target: GAL4 DBD-tagged VIVIT PPTP chimeric peptide
# Assay: two-hybrid; mammalian two-hybrid in HEK293T cells: GAL4 DBD-tagged peptides, VP16 activation domain-tagged CNAβ2 and pG5-luc cotransfected for 24 h, luciferase read-out; Fig. 4b with or without 1 μM ionomycin
substance,measurement,value
VP16 activation domain-tagged CNAβ2,fold change of the two-hybrid signal against L-1-2 WT,1.93 fold
same,fold change of the two-hybrid signal against VIVIT 10-mer,4.76 fold
